Results published in PMC4612324.

Target: Aβ 1-40 peptide (UniProt P05067)
Test: ELISA; Aβ1-40 peptide coated on Maxisorp plates (0.1 µg/ml, bicarbonate buffer pH 9.6); antibodies serially diluted in PBS/1 % BSA, 1 h at room temperature; detected with biotinylated anti-mouse IgG and streptavidin poly-HRP; relative affinity

- EC50: 0.34 pM
Substance: chGantenerumab (mouse/human chimeric version of Gantenerumab with mouse IgG2a constant region) (antibody)
